From paper PMC5365143

Target: EGFP-HDQ74 (mutant huntingtin exon 1 with 74 glutamine residues)
Assay: FRET or BRET

B1: AavLEA1-mCherry (natural protein)
chain: MSSQQNQNRQGEQQEQGYMEAAKEKVVNAWESTKETLSSTAQAAAEKTAEFRDSAGETIRDLTGQAQEKGQEFKERAGEKAEETKQRAGEKMDETKQRAGEMRENAGQKMEEYKQQGKGKAEELRDTAAEKLHQAGEKVKGRD
  dFRET: 3%
